The record followed here is EP4703380A1, “INTEGRIN-TARGETING ANTIBODIES AND USE THEREOF” (NIO BIOPHARMACEUTICALS. INC., priority 2023, dated 2024).

A word on the Kd: it is the free concentration of one partner at which half of the binding sites on the other are occupied at equilibrium, for simple one-to-one binding. Broadly, the koff is a measure of how fast the partners let go of each other. For orientation: kon means a measure of how fast the partners come together. One may read the EC50 as the midpoint of the concentration-response curve.

The target of assay [1] is VLA-3 (ITGA3/ITGB1) on the cell membrane. The experiment in a line: cell-based or functional assay.
In assay [2] the target is recombinant human VLA-3 protein (ITGA3/ITGB1 heterodimer) (human) (UniProt P05556). The experiment in a line: BLI (Octet Red), antibody on AHC sensor, 50 nM VLA-3 with 2 mM Ca2+. On the technique in general: In BLI a coated tip is dipped into the sample, and binding shifts an interference pattern.
Assay [3] shares this target. As to the kind of experiment: ELISA, coated VLA-3 (0.125-1.5 nM), antibody 1 µg/mL. For orientation: An ELISA detects its analyte on a solid surface through an enzyme-linked reagent.
For assay [4] the target is unchanged. The experiment in a line: SPR (Biacore T200), PS4-002 immobilised on CM5, VLA-3 as analyte, HBS-EP running buffer with 3 mM EDTA. Background: SPR reads the build-up and loss of mass on a sensor chip optically.
Assay [5] shares this target. The experiment in a line: BLI (Octet Red), antibody on AHC sensor, VLA-3 as analyte, no additive, 0 mM EDTA in the running buffer.
The target is the same in assay [6]. As to the kind of experiment: BLI (Octet Red), antibody on AHC sensor, 50 nM VLA-3 with 2 mM Mn2+.
Assay [7] shares this target. As to the kind of experiment: BLI (Octet Red), antibody on AHC sensor, 50 nM VLA-3 with 2 mM EDTA.
The target is the same in assay [8]. As to the kind of experiment: BLI (Octet Red), antibody on AHC sensor, 50 nM VLA-3 with 2 mM Mg2+.
The target of assay [9] is recombinant human VLA-3 protein (ITGA3/ITGB1 heterodimer) (human, UniProt P05556 21-728). The experiment in a line: ELISA, coated VLA-3 (0.125-1.5 nM), antibody 1 µg/mL.
Sequence of recombinant human VLA-3 protein (ITGA3/ITGB1 heterodimer) (P05556 21-728, one chain of several): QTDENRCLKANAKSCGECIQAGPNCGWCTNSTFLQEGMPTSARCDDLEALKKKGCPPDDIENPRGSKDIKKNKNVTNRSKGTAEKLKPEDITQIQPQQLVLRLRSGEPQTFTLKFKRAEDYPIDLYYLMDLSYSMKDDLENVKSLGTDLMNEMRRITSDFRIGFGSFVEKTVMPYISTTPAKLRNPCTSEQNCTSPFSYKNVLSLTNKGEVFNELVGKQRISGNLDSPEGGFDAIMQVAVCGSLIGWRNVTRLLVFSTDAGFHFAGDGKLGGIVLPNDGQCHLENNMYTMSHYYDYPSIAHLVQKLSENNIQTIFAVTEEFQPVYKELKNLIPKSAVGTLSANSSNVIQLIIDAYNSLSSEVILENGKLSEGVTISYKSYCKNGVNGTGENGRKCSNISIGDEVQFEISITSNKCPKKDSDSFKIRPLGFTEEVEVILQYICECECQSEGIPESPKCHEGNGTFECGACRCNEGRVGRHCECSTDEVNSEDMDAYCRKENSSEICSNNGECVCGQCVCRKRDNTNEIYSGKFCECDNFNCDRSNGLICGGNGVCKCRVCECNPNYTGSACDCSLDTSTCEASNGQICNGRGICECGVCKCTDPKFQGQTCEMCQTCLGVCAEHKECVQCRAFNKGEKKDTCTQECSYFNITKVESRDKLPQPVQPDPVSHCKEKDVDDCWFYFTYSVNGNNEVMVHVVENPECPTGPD

Sequence of recombinant human VLA-3 protein (ITGA3/ITGB1 heterodimer) (human) (P05556 21-728, one chain of several): as above

B1: PS4-002-vcMMAE (PS4 maxibody-vcMMAE conjugate, WT) (Fc fusion, part only; not given: scFv linker, hinge-Fc and drug, not shown: another chain or arm of the molecule; a dimerising Fc or GST; small tags and cut ends)
VH: QVQLVQSGGGLVNPGGSLRLSCAASGFPFSDHYMSWIRQAPGKGLEWVSYISNRGYTIHYADFVKGRFTISRDNAENTLYLQMNSLRAEDTAVYYCARDRGTIDAFDLWGQGTMVTVSS
VL: QSALTQPASVSGSPGQSITIPCSGTSDDIGRYNYVSWYQQHPGKAPKLLIYDVTRRSSGVSSHFSGSKSGSTASLIISGLQADDEADYFCSSFTNNRTVVFGGGTKLTVL
modifications: vcMMAE conjugated to cysteines after partial reduction with TCEP; average DAR 4.09; sites not stated, presumabl [CUT]
For B1, in assay [1], the IC50 (nM), cell growth inhibition (AlamarBlue), A549 cells is 5.22 nM; the IC50 (nM), cell growth inhibition (AlamarBlue), BT20 cells is 134 nM; the IC50 (nM), cell growth inhibition (AlamarBlue), CoCaB1 cells worked out at 2.21 nM; the IC50 (nM), cell growth inhibition (AlamarBlue), MDA-MB-231 cells turned out to be 0.77 nM. In assay [1], the IC50 (nM), cell growth inhibition (AlamarBlue), MDA-MB-453 cells (first row) was 9.79 nM; the IC50 (nM), cell growth inhibition (AlamarBlue), MDA-MB-453 cells (second row) worked out at 18.8 nM; the IC50 (nM), cell growth inhibition (AlamarBlue), MKN45 cells was 14.1 nM; the IC50 (nM), cell growth inhibition (AlamarBlue), Panc-1 cells turned out to be 2.7 nM. Also, in assay [1], the IC50 (nM), cell growth inhibition (AlamarBlue), SCaBER cells came to 1.88 nM; the IC50 (nM), cell growth inhibition (AlamarBlue), SW780 cells is 1.78 nM; the IC50 (nM), cell growth inhibition (AlamarBlue), UMUC-3 cells was 2.1 nM; the Maximum (% inhibition), cell growth inhibition (AlamarBlue), A549 cells was 77.3%. Further, in assay [1], the Maximum (% inhibition), cell growth inhibition (AlamarBlue), Aspc-1 cells stood at 51.8%; the Maximum (% inhibition), cell growth inhibition (AlamarBlue), BT20 cells is 79.6%; the Maximum (% inhibition), cell growth inhibition (AlamarBlue), CoCaB1 cells is 95.5%; the Maximum (% inhibition), cell growth inhibition (AlamarBlue), MDA-MB-231 cells was found to be 78%. In addition, in [1], the Maximum (% inhibition), cell growth inhibition (AlamarBlue), MDA-MB-453 cells (first row) came out at 96.2%; the Maximum (% inhibition), cell growth inhibition (AlamarBlue), MDA-MB-453 cells (second row) was determined as 87.9%; the Maximum (% inhibition), cell growth inhibition (AlamarBlue), MDA-MB-468 cells came to 89.9%; the Maximum (% inhibition), cell growth inhibition (AlamarBlue), MKN45 cells amounted to 55.6%. In addition, in [1], the Maximum (% inhibition), cell growth inhibition (AlamarBlue), Panc-1 cells came out at 73.8%; the Maximum (% inhibition), cell growth inhibition (AlamarBlue), SCaBER cells is 89.7%; the Maximum (% inhibition), cell growth inhibition (AlamarBlue), SW780 cells worked out at 90.4%; the Maximum (% inhibition), cell growth inhibition (AlamarBlue), UMUC-3 cells worked out at 90.8%.

B2: PS4-002 maxibody (scFv-human IgG1 Fc), wild type (Fc fusion, part only; not given: scFv linker and IgG1 hinge-Fc, not shown: another chain or arm of the molecule; a dimerising Fc or GST; small tags and cut ends)
VH: B1 VH
VL: B1 VL
Take B2: the dissociation constant Kd in assay [2] was 6.46 nM; in assay [4] it was 216 nM; in assay [5], 2.15 nM; in assay [6], 0.23 nM; in [7], 2170 nM; in assay [8], 0.85 nM. Besides, the koff came to 0.000209 s⁻¹ in assay [2]; 0.0045 s⁻¹ in assay [4]; 5.9e-05 s⁻¹ in assay [5]; 8.46e-06 s⁻¹ in assay [6]; 0.00397 s⁻¹ in [7]; 3.78e-05 s⁻¹ in assay [8]. Besides, the kon in [2] stood at 32400 M⁻¹ s⁻¹; in assay [4], 20900 M⁻¹ s⁻¹; in assay [5], 32500 M⁻¹ s⁻¹; in [6] it was 36500 M⁻¹ s⁻¹; in [7] it was 1830 M⁻¹ s⁻¹; in assay [8], 44600 M⁻¹ s⁻¹. The EC50 in [3] stood at 1 nM.

B3: PS4 maxibody variant 2 (Linker-C variant) (Fc fusion)
scFv: QVQLVQSGGGLVNPGGSLRLSCAASGFPFSDHYMSWIRQAPGKGLEWVSYISNRGYTIHYADFVKGRFTISRDNAENTLYLQMNSLRAEDTAVYYCARDRGTIDAFDLWGQGTMVTVSSGGGGGSGGGSCGGGGSQSALTQPASVSGSPGQSITIPCSGTSDDIGRYNYVSWYQQHPGKAPKLLIYDVTRRSSGVSSHFSGSKSGSTASLIISGLQADDEADYFCSSFTNNRTVVFGGGTKLTVLG
notes: also called Mutant 2; L-C; not shown: Fc domain of human IgG1
As to B3, in [9], the 50% effective concentration (EC50) is roughly 1 nM.
